{"source": "paper PMC2118993", "about": "(The Journal of Experimental Medicine, 1991)", "key": {"[1]": {"molecular_target": "T1, purified I-Ed class II glycoprotein (Mus musculus, UniProt P01904+P01915)", "T1 sequence (P01904 26-255)": "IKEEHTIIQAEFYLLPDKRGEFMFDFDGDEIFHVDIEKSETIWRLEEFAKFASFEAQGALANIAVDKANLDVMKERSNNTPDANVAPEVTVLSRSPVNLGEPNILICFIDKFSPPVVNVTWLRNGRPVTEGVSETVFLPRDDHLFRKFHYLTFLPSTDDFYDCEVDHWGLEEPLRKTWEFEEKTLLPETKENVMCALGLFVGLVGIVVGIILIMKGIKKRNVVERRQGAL", "T1 sequence (P01915 27-264 limits assumed)": "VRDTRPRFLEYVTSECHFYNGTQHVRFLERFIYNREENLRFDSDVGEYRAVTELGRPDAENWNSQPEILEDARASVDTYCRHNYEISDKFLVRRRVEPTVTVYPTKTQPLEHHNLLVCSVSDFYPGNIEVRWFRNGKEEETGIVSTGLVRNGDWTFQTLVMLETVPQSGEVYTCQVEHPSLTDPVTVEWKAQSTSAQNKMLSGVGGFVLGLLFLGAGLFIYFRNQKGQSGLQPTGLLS", "type": "binding"}, "[2]": {"tested_on": "purified I-Ad class II glycoprotein", "type": "binding, mouse", "settings": "immunoassay"}, "[3]": {"molecular_target": "I-Ed class II MHC glycoprotein, purified (mouse (endogenous in A20 B lymphoma))", "assay": "ELISA"}}, "note": "Side chains are listed from the residue outwards. Ends that are not written are not given here. * marks the point of attachment. Biotin = O=C1N[C@H]2[C@H](CS[C@H]2CCCCC(=O)*)N1; Ahx = NCCCCCC(=O)O"}
{"molecule": "FISEAIIHVLHSR [Myo(106-118), reference compound]", "values": [{"measurement": "inhibition of binding of biotin-HEL(104-120) to I-Ed by unlabeled peptide", "setting": "[1]; 2 μM biotin-HEL(104-120), 24 h, at higher competitor concentrations", "result": "partially inhibited"}]}
{"molecule": "biotin-Myo(106-118): Myo(106-118) biotinylated with biotin-amidocaproate N-hydroxysuccinimide ester at the free α amino group ({Biotin-Ahx}-FISEAIIHVLHSR)", "values": [{"measurement": "optimum pH of binding to I-Ed", "setting": "[1]; 40 h at various pHs, 2 μM biotin-HEL(104-120) or 10 μM biotin-Myo(106-118)", "result": "more acidic pH"}, {"measurement": "binding to I-Ed (in words)", "setting": "[1]; immunoassay", "result": "weakly"}, {"measurement": "binding to I-Ad (in words)", "setting": "[2]", "result": "binds well"}]}
{"molecule": "{Biotin-Ahx}-GMNAWVAWRNRCK([Ahx-Biotin])GTDVY", "note": "[biotin-HEL(104-120)]", "values": [{"measurement": "Kd", "setting": "[3]", "result": 2330, "unit": "nM"}]}
